Laboratory results published in patent publication US20240409617A1.

Molecular target: S1
Test: BLI

Question: Which Kd does the source give for CR3022 IgG here?
Answer: < 1 pM
